Consider one molecule from PMC2275666 (The EMBO Journal, 2008).

The target of assay [1] is T1, 6H–hTFIIEα S365E (human, UniProt P29083 1-439, S365E).
T1 sequence: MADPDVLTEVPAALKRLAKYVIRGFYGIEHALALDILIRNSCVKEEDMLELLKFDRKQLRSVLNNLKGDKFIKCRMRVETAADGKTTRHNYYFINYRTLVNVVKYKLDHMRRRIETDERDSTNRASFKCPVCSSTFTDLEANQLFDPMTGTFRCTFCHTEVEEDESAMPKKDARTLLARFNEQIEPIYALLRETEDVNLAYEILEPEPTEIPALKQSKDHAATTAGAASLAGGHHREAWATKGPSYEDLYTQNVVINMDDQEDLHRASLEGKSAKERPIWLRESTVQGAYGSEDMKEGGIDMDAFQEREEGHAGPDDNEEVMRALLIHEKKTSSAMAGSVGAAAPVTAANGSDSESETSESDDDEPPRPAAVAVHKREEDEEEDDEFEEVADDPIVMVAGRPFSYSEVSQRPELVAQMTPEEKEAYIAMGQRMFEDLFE
Kind of assay: pull-down.

Assay [2] addresses T2, 6H–hTFIIEα S365A (human, UniProt P29083 1-439, S365A).
T2 sequence: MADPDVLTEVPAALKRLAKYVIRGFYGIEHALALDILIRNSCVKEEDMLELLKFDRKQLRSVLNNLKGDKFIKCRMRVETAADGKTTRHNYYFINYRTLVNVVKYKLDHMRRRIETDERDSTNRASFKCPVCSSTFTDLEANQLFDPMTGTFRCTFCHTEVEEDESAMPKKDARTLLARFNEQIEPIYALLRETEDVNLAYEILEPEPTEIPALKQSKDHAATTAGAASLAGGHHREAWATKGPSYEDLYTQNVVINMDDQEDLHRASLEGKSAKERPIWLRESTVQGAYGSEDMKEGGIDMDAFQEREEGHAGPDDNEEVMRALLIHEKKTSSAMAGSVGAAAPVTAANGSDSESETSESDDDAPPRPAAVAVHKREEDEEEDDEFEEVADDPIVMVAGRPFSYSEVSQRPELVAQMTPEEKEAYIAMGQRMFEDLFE
Kind of assay: pull-down.

B1: GST-tagged hTFIIEβ (natural protein)
chain: MDPSLLRERELFKKRALSTPVVEKRSASSESSSSSSKKKKTKVEHGGSSGSKQNSDHSNGSFNLKALSGSSGYKFGVLAKIVNYMKTRHQRGDTHPLTLDEILDETQHLDIGLKQKQWLMTEALVNNPKIEVIDGKYAFKPKYNVRDKKALLRLLDQHDQRGLGGILLEDIEEALPNSQKAVKALGDQILFVNRPDKKKILFFNDKSCQFSVDEEFQKLWRSVTVDSMDEEKIEEYLKRQGISSMQESGPKKVAPIQRRKKPASQKKRRFKTHNEHLAGVLKDYSDITSSK
B1: the binding result in assay [1] and in assay [2] was “binds” throughout.
